{"source": "patent US20260201020A1", "about": "“METHODS FOR EXPRESSION OF FUSION-FREE BOVINE ULTRALONG CDR3 SCAFFOLD” (priority 2022, published 2026)", "binders": {"B1": {"name": "R2G3-His (peptide)", "chain": "GGGGAMGSEGDKTCPDGYEHTCGCIGGCGCKRSACIGALCCQASLGGWLSDGETYTGGGGSGGGGSHHHHHH", "modifications": "not checked"}}, "key": {"[1]": {"molecular_target": "SARS-CoV-2 Spike RBD (SARS-CoV-2), P0DTC2"}, "[2]": {"molecular_target": "SARS-CoV-2 Spike RBD (SARS-CoV-2), P0DTC2", "remark": "listed apart in the source"}, "[3]": {"molecular_target": "SARS-CoV-2 Spike RBD (SARS-CoV-2), P0DTC2", "remark": "listed apart in the source"}, "[4]": {"molecular_target": "SARS-CoV-2 Spike RBD (SARS-CoV-2), P0DTC2", "remark": "listed apart in the source"}, "[5]": {"molecular_target": "SARS-CoV-2 Spike RBD (SARS-CoV-2), P0DTC2", "remark": "listed apart in the source"}, "[6]": {"molecular_target": "SARS-CoV-2 Spike RBD (SARS-CoV-2), P0DTC2", "remark": "listed apart in the source"}, "[7]": {"molecular_target": "SARS-CoV-2 Spike RBD (SARS-CoV-2), P0DTC2", "remark": "listed apart in the source"}, "[8]": {"molecular_target": "SARS-CoV-2 Spike RBD (SARS-CoV-2), P0DTC2", "remark": "listed apart in the source"}, "[9]": {"molecular_target": "SARS-CoV-2 Spike RBD (SARS-CoV-2), P0DTC2", "remark": "listed apart in the source"}, "[10]": {"molecular_target": "SARS-CoV-2 Spike RBD (SARS-CoV-2), P0DTC2", "remark": "listed apart in the source"}, "[11]": {"molecular_target": "SARS-CoV-2 Spike RBD (SARS-CoV-2), P0DTC2", "remark": "listed apart in the source"}, "[12]": {"molecular_target": "SARS-CoV-2 Spike RBD (SARS-CoV-2), P0DTC2", "remark": "listed apart in the source"}, "[13]": {"molecular_target": "SARS-CoV-2 Spike RBD (SARS-CoV-2), P0DTC2", "remark": "listed apart in the source"}, "[14]": {"molecular_target": "SARS-CoV-2 Spike RBD (SARS-CoV-2), P0DTC2", "remark": "listed apart in the source"}, "[15]": {"molecular_target": "SARS-CoV-2 Spike RBD (SARS-CoV-2), P0DTC2", "remark": "listed apart in the source"}, "[16]": {"molecular_target": "SARS-CoV-2 Spike RBD (SARS-CoV-2), P0DTC2", "remark": "listed apart in the source"}, "[17]": {"molecular_target": "SARS-CoV-2 Spike RBD (SARS-CoV-2), P0DTC2", "remark": "listed apart in the source"}, "[18]": {"molecular_target": "SARS-CoV-2 Spike RBD (SARS-CoV-2), P0DTC2", "remark": "listed apart in the source"}, "[19]": {"molecular_target": "SARS-CoV-2 Spike RBD (SARS-CoV-2), P0DTC2", "remark": "listed apart in the source"}, "[20]": {"molecular_target": "SARS-CoV-2 Spike RBD (SARS-CoV-2), P0DTC2", "remark": "listed apart in the source"}, "[21]": {"molecular_target": "SARS-CoV-2 Spike RBD (SARS-CoV-2), P0DTC2", "remark": "listed apart in the source"}, "[22]": {"molecular_target": "SARS-CoV-2 Spike RBD (SARS-CoV-2), P0DTC2", "remark": "listed apart in the source"}, "[23]": {"molecular_target": "SARS-CoV-2 Spike RBD (SARS-CoV-2), P0DTC2", "remark": "listed apart in the source"}, "[24]": {"molecular_target": "SARS-CoV-2 Spike RBD (SARS-CoV-2), P0DTC2", "remark": "listed apart in the source"}, "[25]": {"molecular_target": "SARS-CoV-2 Spike RBD (SARS-CoV-2), P0DTC2", "remark": "listed apart in the source"}, "[26]": {"molecular_target": "SARS-CoV-2 Spike RBD (SARS-CoV-2), P0DTC2", "remark": "listed apart in the source"}, "[27]": {"molecular_target": "SARS-CoV-2 Spike RBD (SARS-CoV-2), P0DTC2", "remark": "listed apart in the source"}}, "note": "Where two headings read alike, the source gives them in different places."}
{"binder": "B1", "values": [{"measurement": "Adjusted Binding Rate", "setting": "[1]", "value": 3.79, "unit": "nm/s"}, {"measurement": "Adjusted Binding Rate", "setting": "[2]", "value": 19.4, "unit": "nm/s"}, {"measurement": "Adjusted Binding Rate", "setting": "[3]", "value": 22, "unit": "nm/s"}, {"measurement": "Adjusted Binding Rate", "setting": "[4]", "value": 7.34, "unit": "nm/s"}, {"measurement": "Adjusted Binding Rate", "setting": "[5]", "value": 3.39, "unit": "nm/s"}, {"measurement": "Adjusted Binding Rate", "setting": "[6]", "value": 14.3, "unit": "nm/s"}, {"measurement": "Adjusted Binding Rate", "setting": "[7]", "value": 8.31, "unit": "nm/s"}, {"measurement": "Adjusted Binding Rate", "setting": "[8]", "value": 2.12, "unit": "nm/s"}, {"measurement": "Adjusted Binding Rate", "setting": "[9]", "value": 4.91, "unit": "nm/s"}, {"measurement": "Adjusted Binding Rate", "setting": "[10]", "value": 12.5, "unit": "nm/s"}, {"measurement": "Adjusted Binding Rate", "setting": "[11]", "value": 34, "unit": "nm/s"}, {"measurement": "Adjusted Binding Rate", "setting": "[12]", "value": 3.35, "unit": "nm/s"}, {"measurement": "Adjusted Binding Rate", "setting": "[13]", "value": 2.44, "unit": "nm/s"}, {"measurement": "Adjusted Binding Rate", "setting": "[14]", "value": 7.1, "unit": "nm/s"}, {"measurement": "Adjusted Binding Rate", "setting": "[15]", "value": 7.41, "unit": "nm/s"}, {"measurement": "Adjusted Binding Rate", "setting": "[16]", "value": 4.4, "unit": "nm/s"}, {"measurement": "Adjusted Binding Rate", "setting": "[17]", "value": 31.9, "unit": "nm/s"}, {"measurement": "Adjusted Binding Rate", "setting": "[18]", "value": 1.5, "unit": "nm/s"}, {"measurement": "Adjusted Binding Rate", "setting": "[19]", "value": 6.36, "unit": "nm/s"}, {"measurement": "Adjusted Binding Rate", "setting": "[20]", "value": 7.24, "unit": "nm/s"}, {"measurement": "Adjusted Binding Rate", "setting": "[21]", "value": 7.3, "unit": "nm/s"}, {"measurement": "Adjusted Binding Rate", "setting": "[22]", "value": 5.39, "unit": "nm/s"}, {"measurement": "Adjusted Binding Rate", "setting": "[23]", "value": 3.73, "unit": "nm/s"}, {"measurement": "Adjusted Binding Rate", "setting": "[24]", "value": 2.1, "unit": "nm/s"}, {"measurement": "Adjusted Binding Rate", "setting": "[25]", "value": 2.88, "unit": "nm/s"}, {"measurement": "Adjusted Binding Rate", "setting": "[26]", "value": 6.47, "unit": "nm/s"}, {"measurement": "Adjusted Binding Rate", "setting": "[27]", "value": 4.3, "unit": "nm/s"}]}
